Publication doi:10.1101/2024.04.06.588386, “Structural plasticity of 2A proteins in the Parechovirus family” (bioRxiv, 2024)

Target: the molecule itself
Test: SEC-SAXS; Superdex S75 Increase 5/150; 20 mM Hepes-NaOH pH 7.4, 150 mM NaCl, 4 mM TCEP, 1% v/v glycerol; molecular weight estimates and fit of crystallographic dimers (CRYSOL, NMA)

B1: HPeV1-2A^FL (full-length 2A^H/NC protein of human parechovirus 1) (natural protein)
chain: SPYGQQPQNRMMKLAYLDRGFYKHYGIIVGDHVYQLDSDDIFKTALTGKAKFTKTKLTSDWVIEEECELDYFRIKYLESAVDSEHIFSVDKNCETIAKDIFGTHTLSQHQAIGLVGTILLTAGLMSTIKTPVNAVTIKEFFNHAIDGDEQ
notes: also called full-length HPeV1-2A
- stoichiometry N: 2
